Test results published in US20190203302A1, “BIOMARKER C[…]-1 AS ACTIVE INGREDIENT, FOR DIAGNOSIS OF RADIATION-RESISTANT CANCER OR PREDICTION OF RADIATION THERAPY PROGNOSIS” (UNIVERSITY OF ULSAN FOUNDATION FOR INDUSTRY COOPERATION, priority 2016, published 2019).

Molecular target: T1, LRP-1 (Homo sapiens, UniProt Q07954)
T1 construct: Proteins were extracted from colon cancer tissues of each case according to radiation irradiation; from tissue; host or cells: patient colon cancer tissue (0 Gy / 2 Gy) transplanted and subcultured in nude mice
T1 sequence (Q07954 20-4544): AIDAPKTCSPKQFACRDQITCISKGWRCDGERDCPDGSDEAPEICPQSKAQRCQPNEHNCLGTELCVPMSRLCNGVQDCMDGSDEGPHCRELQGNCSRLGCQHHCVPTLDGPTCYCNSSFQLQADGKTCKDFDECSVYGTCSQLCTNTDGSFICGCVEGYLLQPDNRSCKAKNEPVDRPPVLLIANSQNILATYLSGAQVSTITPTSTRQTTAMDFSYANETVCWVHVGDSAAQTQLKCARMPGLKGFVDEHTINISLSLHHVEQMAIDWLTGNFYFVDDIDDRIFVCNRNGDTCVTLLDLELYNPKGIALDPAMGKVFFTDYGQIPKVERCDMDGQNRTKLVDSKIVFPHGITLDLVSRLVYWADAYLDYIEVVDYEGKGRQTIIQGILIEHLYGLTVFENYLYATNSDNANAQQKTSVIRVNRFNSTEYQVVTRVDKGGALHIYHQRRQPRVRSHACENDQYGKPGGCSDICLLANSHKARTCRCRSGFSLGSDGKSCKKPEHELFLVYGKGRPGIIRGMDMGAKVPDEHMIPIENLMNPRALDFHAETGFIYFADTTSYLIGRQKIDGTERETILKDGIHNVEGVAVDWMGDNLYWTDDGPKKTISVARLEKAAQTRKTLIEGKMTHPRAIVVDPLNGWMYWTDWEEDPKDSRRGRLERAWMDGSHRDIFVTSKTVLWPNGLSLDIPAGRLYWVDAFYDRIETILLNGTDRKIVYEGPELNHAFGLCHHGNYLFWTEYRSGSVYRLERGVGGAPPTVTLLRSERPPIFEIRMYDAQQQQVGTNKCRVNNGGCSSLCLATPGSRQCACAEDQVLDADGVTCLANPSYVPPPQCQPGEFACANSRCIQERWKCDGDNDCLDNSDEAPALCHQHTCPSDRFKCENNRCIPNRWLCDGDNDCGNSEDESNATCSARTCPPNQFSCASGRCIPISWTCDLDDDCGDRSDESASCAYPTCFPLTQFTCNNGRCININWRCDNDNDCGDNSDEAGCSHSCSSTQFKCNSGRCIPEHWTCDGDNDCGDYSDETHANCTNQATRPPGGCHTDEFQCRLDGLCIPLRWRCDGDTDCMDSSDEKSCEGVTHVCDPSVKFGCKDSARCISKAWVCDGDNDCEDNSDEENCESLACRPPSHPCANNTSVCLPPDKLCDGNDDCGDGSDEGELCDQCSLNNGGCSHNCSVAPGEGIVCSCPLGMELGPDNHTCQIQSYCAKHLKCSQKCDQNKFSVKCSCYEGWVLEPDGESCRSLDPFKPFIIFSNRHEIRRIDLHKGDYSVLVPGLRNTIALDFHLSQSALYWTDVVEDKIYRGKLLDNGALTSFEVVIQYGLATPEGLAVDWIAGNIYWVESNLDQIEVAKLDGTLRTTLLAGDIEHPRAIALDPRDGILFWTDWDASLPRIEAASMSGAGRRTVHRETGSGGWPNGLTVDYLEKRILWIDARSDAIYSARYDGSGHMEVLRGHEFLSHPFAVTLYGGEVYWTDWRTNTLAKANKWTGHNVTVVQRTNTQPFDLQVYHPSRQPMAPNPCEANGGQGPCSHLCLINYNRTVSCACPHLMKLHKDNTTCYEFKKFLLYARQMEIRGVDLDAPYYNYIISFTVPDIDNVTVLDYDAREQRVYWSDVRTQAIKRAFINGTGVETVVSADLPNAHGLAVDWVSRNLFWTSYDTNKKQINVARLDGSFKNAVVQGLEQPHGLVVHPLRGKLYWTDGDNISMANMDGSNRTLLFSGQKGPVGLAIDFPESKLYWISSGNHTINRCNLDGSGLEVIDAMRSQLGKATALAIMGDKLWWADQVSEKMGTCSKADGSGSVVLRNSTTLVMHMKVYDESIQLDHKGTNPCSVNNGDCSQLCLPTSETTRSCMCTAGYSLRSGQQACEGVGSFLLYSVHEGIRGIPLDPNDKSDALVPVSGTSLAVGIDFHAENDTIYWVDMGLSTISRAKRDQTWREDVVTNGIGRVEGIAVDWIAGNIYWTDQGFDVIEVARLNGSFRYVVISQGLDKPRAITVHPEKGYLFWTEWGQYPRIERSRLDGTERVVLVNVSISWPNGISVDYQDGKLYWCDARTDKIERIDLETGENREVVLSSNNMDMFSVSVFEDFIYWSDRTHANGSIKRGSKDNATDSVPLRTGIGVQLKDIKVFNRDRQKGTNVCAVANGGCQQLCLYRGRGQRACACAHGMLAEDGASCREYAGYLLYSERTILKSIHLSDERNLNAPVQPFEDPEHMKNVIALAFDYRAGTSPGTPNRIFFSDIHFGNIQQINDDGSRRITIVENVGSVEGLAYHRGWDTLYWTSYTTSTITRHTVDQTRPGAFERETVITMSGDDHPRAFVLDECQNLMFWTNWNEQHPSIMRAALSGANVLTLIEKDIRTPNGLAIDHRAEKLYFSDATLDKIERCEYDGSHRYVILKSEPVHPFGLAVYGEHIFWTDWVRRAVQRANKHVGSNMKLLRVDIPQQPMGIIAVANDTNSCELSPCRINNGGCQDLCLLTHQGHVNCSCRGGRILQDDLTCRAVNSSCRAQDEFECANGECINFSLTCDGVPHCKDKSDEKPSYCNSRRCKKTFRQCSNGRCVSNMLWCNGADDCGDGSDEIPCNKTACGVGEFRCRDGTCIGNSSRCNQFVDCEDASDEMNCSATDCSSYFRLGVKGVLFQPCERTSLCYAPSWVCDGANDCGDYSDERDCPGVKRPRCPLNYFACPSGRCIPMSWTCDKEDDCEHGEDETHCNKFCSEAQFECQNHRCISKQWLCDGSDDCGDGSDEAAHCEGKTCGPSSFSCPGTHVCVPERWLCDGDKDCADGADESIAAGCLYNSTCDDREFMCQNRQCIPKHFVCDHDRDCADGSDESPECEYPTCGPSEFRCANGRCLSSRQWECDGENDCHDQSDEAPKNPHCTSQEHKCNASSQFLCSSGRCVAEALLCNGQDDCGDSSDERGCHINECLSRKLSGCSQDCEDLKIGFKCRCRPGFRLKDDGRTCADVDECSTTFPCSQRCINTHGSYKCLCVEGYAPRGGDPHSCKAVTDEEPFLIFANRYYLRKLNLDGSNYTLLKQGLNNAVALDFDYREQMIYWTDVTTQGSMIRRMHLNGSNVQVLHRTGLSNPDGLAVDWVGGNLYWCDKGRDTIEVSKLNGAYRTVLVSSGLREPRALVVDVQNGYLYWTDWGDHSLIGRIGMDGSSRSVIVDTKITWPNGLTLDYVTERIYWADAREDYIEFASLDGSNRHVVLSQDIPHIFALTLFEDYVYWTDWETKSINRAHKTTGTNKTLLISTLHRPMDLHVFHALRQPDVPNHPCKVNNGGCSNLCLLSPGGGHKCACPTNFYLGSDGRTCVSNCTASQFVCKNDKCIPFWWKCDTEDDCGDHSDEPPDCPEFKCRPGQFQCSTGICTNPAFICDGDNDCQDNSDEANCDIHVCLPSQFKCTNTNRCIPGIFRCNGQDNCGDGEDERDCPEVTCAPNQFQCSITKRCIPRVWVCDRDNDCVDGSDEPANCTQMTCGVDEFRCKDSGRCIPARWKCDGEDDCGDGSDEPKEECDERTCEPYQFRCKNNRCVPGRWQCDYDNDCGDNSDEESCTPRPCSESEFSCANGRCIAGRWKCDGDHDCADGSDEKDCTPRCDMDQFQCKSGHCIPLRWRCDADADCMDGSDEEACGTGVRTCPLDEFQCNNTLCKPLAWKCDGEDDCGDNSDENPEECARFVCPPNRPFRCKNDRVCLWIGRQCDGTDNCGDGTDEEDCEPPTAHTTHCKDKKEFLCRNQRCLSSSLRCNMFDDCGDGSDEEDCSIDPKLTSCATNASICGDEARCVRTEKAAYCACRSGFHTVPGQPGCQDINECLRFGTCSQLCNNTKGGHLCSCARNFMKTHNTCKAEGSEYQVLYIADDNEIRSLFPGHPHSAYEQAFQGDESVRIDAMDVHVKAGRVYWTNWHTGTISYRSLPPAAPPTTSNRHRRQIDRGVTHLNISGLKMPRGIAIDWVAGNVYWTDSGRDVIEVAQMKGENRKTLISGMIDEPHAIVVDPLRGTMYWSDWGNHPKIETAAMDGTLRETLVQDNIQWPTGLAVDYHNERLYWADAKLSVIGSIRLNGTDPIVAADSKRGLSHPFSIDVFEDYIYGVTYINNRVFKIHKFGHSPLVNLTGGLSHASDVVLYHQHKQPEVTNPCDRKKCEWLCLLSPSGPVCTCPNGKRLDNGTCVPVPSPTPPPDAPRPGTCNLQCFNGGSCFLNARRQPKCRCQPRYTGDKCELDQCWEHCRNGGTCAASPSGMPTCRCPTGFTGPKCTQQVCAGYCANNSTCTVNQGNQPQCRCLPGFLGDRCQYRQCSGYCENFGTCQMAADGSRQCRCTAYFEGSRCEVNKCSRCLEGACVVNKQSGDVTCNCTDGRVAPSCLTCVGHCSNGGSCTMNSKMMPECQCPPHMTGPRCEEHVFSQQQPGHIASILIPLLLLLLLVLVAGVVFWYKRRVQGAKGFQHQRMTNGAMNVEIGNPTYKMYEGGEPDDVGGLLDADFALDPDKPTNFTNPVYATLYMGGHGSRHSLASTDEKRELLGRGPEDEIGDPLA
Assay: Immunoprecipitation assay of TPSFSKI peptide phage and LRP-1, confirmed by western blotting
Format: binding
Settings: proteins extracted from colon cancer tissues, 0 Gy/2 Gy irradiation, LRP-1 and M13 antibodies, IgG beads
Source text: Lysate: 0 Gy/2 Gy protein extracted from radiation colon cancer tissue, IP (B5 phage): 0 Gy/2 Gy Immunoprecipitation with a specific peptide phage in protein extracted from radiation colon cancer tissue, IP (wt phage): 0 Gy/2 Gy Immunoprecipitation in protein extracted from radiation colon cancer tissue with phage without peptide, IP (w/o Ab): 0 Gy/2 Gy Immunoprecipitation without antibody in protein extracted from radiation colon cancer tissue, phage lysate: protein extracted from peptide phage targeting by irradiation in radiation resistant colon cancer tissue, Antibody: LRP-1 antibody
Based on the indirect verification that LRP-1 is a binding partner protein of the TPSFSKI peptide sequence in Examples 3 to 5, an immunoprecipitation assay was performed to directly determine whether […] was bound to the TPSFSKI sequence. Proteins were extracted from colon cancer tissues of each case according to radiation irradiation, and immunoprecipitation was performed using LRP-1 and M13 antibodies and IgG beads.

In the case of “TPSFSKI [TPSFSKI peptide, used as peptide phage]”, the “binding of LRP-1 to the TPSFSKI sequence (immunoprecipitation)” value is reported as “LRP-1 is a binding partner protein of TPSFSKI peptide”.
